Measured values reported in publication PMC4446446 (Nucleic Acids Research, 2015).
Where a chain is given by its changes, count along the chain named. Names may count otherwise.

T1: SDR5C1, wild type, N-terminally His-tagged (human), Q99714
T1 chain: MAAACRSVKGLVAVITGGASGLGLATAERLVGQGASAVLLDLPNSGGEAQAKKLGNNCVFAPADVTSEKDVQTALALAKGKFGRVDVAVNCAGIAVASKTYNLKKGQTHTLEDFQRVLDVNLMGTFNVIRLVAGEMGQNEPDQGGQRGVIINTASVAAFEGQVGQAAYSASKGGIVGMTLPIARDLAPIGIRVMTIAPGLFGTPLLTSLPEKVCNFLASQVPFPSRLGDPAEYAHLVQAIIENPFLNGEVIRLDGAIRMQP

B1: TRMT10C, native (untagged) (enzyme)
chain: MSSKIPAVTYPKNESTPPSEELELDKWKTTMKSSVQEECVSTISSSKDEDPLAATREFIEMWRLLGREVPEHITEEELKTLMECVSNTAKKKYLKYLYTKEKVKKARQIKKEMKAAAREEAKNIKLLETTEEDKQKNFLFLRLWDRNMDIAMGWKGAQAMQFGQPLVFDMAYENYMKRKELQNTVSQLLESEGWNRRNVDPFHIYFCNLKIDGALHRELVKRYQEKWDKLLLTSTEKSHVDLFPKDSIIYLTADSPNVMTTFRHDKVYVIGSFVDKSMQPGTSLAKAKRLNLATECLPLDKYLQWEIGNKNLTLDQMIRILLCLKNNGNWQEALQFVPKRKHTGFLEISQHSQEFINRLKKAKT
B2: SDR5C1, wild type, N-terminally His-tagged, Q99714 1-261 (enzyme)
chain: T1 chain
B3: SDR5C1 P210S, N-terminally His-tagged (enzyme)
chain: T1 chain with P210S
B4: SDR5C1 K172A, N-terminally His-tagged (enzyme)
chain: T1 chain with K172A
B5: SDR5C1 N247S, N-terminally His-tagged (enzyme)
chain: T1 chain with N247S
B6: SDR5C1 R130C, N-terminally His-tagged (enzyme)
chain: T1 chain with R130C
B7: SDR5C1 R226Q, N-terminally His-tagged (enzyme)
chain: T1 chain with R226Q

Tests used:
[1] = target: B4; assay: pull-down
[2] = target: B7; assay: pull-down
[3] = target: B3; assay: pull-down
[4] = target: B6; assay: pull-down
[5] = target: B5; assay: pull-down
[6] = target: T1, SDR5C1, wild type, N-terminally …; assay: native gel or EMSA; details: remark: other sources report otherwise
[7] = target: the molecule itself; assay: native gel or EMSA
[8] = target: the molecule itself; assay: SEC

Binder	Tetramerized SDR5C1 (percent) [7] [%]	stoichiometry N [8]	other results
B1	–	–	Complexed TRMT10C (mass percentage of the complex) [1]: 43%; Complexed TRMT10C (mass percentage of the complex) [2]: 14.3%; Complexed TRMT10C (mass percentage of the complex) [3]: 39.7%; Complexed TRMT10C (mass percentage of the complex) [4]: 28.7%; Complexed TRMT10C (mass percentage of the complex) [5]: 9.3%
B2	–	–	Tetramerized SDR5C1 (percent) [6]: 100%
B3	100	4	–
B4	100	4	–
B5	25.8	–	–
B6	100	4	–
B7	26	–	–
